Literature values, collected in patent US20250108009A1, “METHOD FOR SYNTHESIZING HYBRID NANOPARTICLES COMPRISING APOLIPOPROTEINS” (MEPSGEN CO., LTD., priority 2022, published 2025).

Details: Bekard et al. 2011

insulin
shear rate at which structural changes and aggregates are formed: 200 s⁻¹
shear stress at which structural changes and aggregates are formed: 1000 dyne/cm^2
